Test results from publication PMC3030355.
Like-named read-outs stand apart in the source and are kept apart here.

Tests used:
Assay in all cases: EMSA
[1] = target: T1, RPA-wt (RPA70/RPA32/RPA14 heterotrimer) (human, UniProt P27694;P15927;P35244 1-616;1-270;1-121)
[2] = target: T1, RPA-wt (RPA70/RPA32/RPA14 heterotrimer); remark: listed apart in the source
[3] = target: T2, WRN-E84A (exonuclease-deficient) (human, UniProt Q14191 1-1432, E84A)
[4] = target: T2, WRN-E84A (exonuclease-deficient); remark: listed apart in the source
[5] = target: T1, RPA-wt (RPA70/RPA32/RPA14 heterotrimer); remark: listed apart in the source

T1 sequence (P27694 whole entry, chain 1 of 3): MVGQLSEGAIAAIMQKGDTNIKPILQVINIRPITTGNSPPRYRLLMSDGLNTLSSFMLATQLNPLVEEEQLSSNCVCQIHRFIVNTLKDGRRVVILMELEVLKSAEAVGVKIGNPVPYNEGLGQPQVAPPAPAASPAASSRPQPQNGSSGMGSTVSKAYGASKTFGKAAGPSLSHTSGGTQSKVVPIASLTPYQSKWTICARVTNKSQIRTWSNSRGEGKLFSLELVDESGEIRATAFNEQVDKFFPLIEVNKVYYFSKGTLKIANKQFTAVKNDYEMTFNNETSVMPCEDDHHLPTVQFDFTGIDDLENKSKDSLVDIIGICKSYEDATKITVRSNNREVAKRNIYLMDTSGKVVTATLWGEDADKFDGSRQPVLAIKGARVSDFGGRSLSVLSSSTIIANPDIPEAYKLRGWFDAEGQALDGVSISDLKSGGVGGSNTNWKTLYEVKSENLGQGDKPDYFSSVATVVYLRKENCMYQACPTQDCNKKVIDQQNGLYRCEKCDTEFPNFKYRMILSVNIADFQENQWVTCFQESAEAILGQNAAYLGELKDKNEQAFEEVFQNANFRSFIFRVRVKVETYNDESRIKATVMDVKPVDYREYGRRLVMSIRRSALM
T1 sequence (P15927 whole entry, chain 2 of 3): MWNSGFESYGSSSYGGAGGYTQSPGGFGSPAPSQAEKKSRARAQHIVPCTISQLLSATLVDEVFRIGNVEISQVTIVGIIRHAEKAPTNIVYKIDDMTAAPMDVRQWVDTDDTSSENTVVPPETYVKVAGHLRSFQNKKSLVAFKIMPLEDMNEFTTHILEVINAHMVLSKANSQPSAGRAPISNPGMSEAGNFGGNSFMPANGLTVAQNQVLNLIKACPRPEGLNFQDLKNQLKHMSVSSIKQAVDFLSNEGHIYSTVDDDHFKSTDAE
T1 sequence (P35244 whole entry, chain 3 of 3): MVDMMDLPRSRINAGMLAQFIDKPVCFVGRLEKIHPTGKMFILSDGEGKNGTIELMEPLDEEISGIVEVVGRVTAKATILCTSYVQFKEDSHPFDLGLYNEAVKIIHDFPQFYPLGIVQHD
T2 sequence (Q14191 whole entry E84A): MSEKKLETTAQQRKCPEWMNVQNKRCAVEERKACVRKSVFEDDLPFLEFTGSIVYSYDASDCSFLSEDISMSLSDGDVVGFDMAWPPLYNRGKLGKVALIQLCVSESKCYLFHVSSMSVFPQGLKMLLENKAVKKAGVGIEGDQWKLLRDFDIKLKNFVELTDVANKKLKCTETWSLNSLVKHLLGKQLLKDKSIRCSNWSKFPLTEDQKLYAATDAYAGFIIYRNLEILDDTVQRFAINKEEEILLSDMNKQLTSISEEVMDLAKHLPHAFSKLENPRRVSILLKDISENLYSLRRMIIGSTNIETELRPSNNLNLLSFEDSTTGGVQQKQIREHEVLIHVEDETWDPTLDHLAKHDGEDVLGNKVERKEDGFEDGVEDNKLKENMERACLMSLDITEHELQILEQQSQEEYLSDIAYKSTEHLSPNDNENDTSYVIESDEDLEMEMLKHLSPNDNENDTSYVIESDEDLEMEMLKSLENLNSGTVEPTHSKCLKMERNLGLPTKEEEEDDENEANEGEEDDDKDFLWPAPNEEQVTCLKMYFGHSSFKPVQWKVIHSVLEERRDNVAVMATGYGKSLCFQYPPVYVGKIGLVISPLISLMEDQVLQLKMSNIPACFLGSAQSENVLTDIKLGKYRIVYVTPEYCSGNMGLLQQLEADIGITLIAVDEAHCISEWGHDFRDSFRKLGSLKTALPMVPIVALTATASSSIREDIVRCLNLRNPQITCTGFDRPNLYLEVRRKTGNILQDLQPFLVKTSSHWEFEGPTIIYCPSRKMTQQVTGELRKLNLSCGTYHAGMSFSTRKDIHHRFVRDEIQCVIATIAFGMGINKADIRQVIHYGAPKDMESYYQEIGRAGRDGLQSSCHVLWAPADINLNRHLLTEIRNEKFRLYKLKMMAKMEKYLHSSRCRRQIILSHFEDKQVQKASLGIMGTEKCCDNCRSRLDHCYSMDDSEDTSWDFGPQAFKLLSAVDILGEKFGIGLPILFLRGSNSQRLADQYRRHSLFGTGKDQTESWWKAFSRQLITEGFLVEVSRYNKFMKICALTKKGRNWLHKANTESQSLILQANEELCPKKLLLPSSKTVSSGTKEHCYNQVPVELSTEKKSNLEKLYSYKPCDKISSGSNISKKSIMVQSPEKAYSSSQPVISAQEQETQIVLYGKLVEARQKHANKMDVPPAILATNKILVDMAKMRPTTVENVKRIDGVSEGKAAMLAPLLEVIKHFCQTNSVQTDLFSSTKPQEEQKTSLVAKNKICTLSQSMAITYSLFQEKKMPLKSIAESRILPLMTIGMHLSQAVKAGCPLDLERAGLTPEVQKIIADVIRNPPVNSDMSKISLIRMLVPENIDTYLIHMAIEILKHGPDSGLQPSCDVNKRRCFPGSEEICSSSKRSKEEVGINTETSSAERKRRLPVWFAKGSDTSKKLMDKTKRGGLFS

## TAAGTGAGTGTGAGGATACATGTAGGCAATTG (ssDNA) [ss32]
[1]
  binding result: binds

B1: model replication fork, 32-nt leading gap (mixed)
DNA 1: CGTGACTTGATGTTAACCCTAACCCTAAGATATCGCGTTAAGTGAGTGTGAGGATACATGTAGGCAATTGCCACGTGTCTATCAGCTGAAGTTGTTCGCGACGTGCGATCGTCGCTGCGACG
DNA 2: CGTCGCAGCGACGATCGCACGTCGCGAACAACTTCAGCTGATAGACACGTGGCAATTGCCTACATGTATCCTCACACTCTGAATACGCGATATCTTAGGGTTAGGGTTAACATCAAGTCACG
DNA 3: CGTCGCAGCGACGATCGCACGTCGCGAACAACTTCAGCTGATAGACACGTGG
DNA 4: TCAGAGTGTGAGGATACATGTAGGCAATTGCCACGTGTCTATCAGCTGAAGTTGTTCGCGACGTGCGATCGTCGCTGCGACG
[2]
  binding result: binds
[3]
  binding result: binds

B2: gapped duplex, 32-nt gap (mixed)
DNA 1: B1 DNA 1
DNA 2: B1 DNA 3
DNA 3: ACGCGATATCTTAGGGTTAGGGTTAACATCAAGTCACG
[4]
  binding result: binds
[5]
  binding result: binds
